Data as given in US20150093386A1.

What was measured:
Test in all cases: cell-based or functional assay
[1] = target: EGFR overexpressed on U87 MG EGFR cells (UniProt P00533)
[2] = target: EGFRvIII (EGFR with deletion of exons 2-7) on U87 MG-EGFRvIII cells (human) (UniProt P00533)
[3] = target: endogenous EGFR at low level on U87 MG cells (human) (UniProt P00533)

humanized monoclonal antibody ch806
EC50 values of cytotoxicity on MG-EGFR cells [1]: 6.48 µM | cytotoxicity % at 0.0002 nM, U87 MG EGFR cells with PBMC [1]: 1.89% | cytotoxicity % at 0.002 nM, U87 MG EGFR cells with PBMC [1]: 0.61% | cytotoxicity % at 0.02 nM, U87 MG EGFR cells with PBMC [1]: 1.31% | cytotoxicity % at 0.2 nM, U87 MG EGFR cells with PBMC [1]: 0.37% | cytotoxicity % at 2 nM, U87 MG EGFR cells with PBMC [1]: 0.49% | cytotoxicity % at 20 nM, U87 MG EGFR cells with PBMC [1]: 4.92% | EC50 values of cytotoxicity on U87 MG-EGFRvIII cells [2]: 0.0408 µM | cytotoxicity % at 0.0002 nM, U87 MG EGFRvIII cells with PBMC [2]: 0.41% | cytotoxicity % at 0.002 nM, U87 MG EGFRvIII cells with PBMC [2]: 0.62% | cytotoxicity % at 0.02 nM, U87 MG EGFRvIII cells with PBMC [2]: 0.76% | cytotoxicity % at 0.2 nM, U87 MG EGFRvIII cells with PBMC [2]: 15.6% | cytotoxicity % at 2 nM, U87 MG EGFRvIII cells with PBMC [2]: 22.3% | cytotoxicity % at 20 nM, U87 MG EGFRvIII cells with PBMC [2]: 36.3% | cytotoxicity % at 0.0002 nM, U87 MG cells with PBMC [3]: 0.96% | cytotoxicity % at 0.002 nM, U87 MG cells with PBMC [3]: 0.71% | cytotoxicity % at 0.02 nM, U87 MG cells with PBMC [3]: 0.71% | cytotoxicity % at 0.2 nM, U87 MG cells with PBMC [3]: 0.07% | cytotoxicity % at 2 nM, U87 MG cells with PBMC [3]: 0.28% | cytotoxicity % at 20 nM, U87 MG cells with PBMC [3]: 4.18%
